Residue numbers refer to the chain shown, from its start. Numbers in names are those of the source.

What is called Km is the concentration of substrate that gives half-maximal velocity. In general, kcat refers to the number of substrate molecules converted per active site and unit of time at saturation.

A short description of data set [1]: 14C assay with purified protein (14CO2 captured on Ca(OH)2 filter paper). It is filed as biochemical. The following applies: [14C]-carboxyl-labeled dicamba.
The nature of data set [2]: Detection of 2,5-DCA product by toluene capture or head-space GC/MS. The note with it: purified protein, toluene capturing. Type of data set: biochemical. On the procedure: Alternatively, dicamba decarboxylase activity can be monitored by measuring decarboxylation products other than CO2 using product detection methods. The decarboxylation product of dicamba, 2,5-dichloro anisole or 2,5-DCA (FIG. 1C), is a volatile compound with a flash point of 21° C. To capture this volatile compound for detection, 140 ul of toluene solution is added on top of 1 ml reaction mixture to form a trapping layer in a 1.5 ml eppendorf tube. […] The reaction is kept still at room temperature overnight before being vortex mixed and centrifuged at 14,000 rpm for 15 minutes. The top toluene phase is carefully removed using a micropipette and transferred into a 12×32 mm polypropylene vial (Vial 11 mm) from MicroLiter Analytical Supplies, Inc. (catalog number 11-5300-100). The vial is sealed with Crimp seal (11 mm with FEP/Nat Rubber) from MicroLiter Analytical Supplies, Inc. (catalog number 11-0020A) using a E-Z Crimper™ 11 mm from Wheaton Inc. 1 ul of the toluene mixture is taken from the sealed vials and injected in splitless mode into a GC/MS system for sample analysis (Agilent GC/MS system with a 6890A GC, a 5973N MSD and a CTC CombiPAL auto-sampler or with a 7890A GC, a 5975C MSD and an Agilent GC Sampler 80 auto-sampler). The GC parameters are: Agilent DB-5MS column (30 m length, 0.25 mm diameter, 0.25 um film) or equivalent; The GC inlet temperature, 250° C.; Carry gas, helium in constant flow mode (1.2 mL/min); The GC oven temperature program, initial temperature at 70° C. for 1 min, ramping to 200° C. at 15° C./min, and then ramping to 250° C. at 30° C./min. MS data acquisition is done in SIM (selected ion monitoring) mode, monitoring the positive ion at M/Z 176 for the molecular ion of […]. The solvent delay for MS acquisition is set at 4 min. Another method for detection of 2,5-DCA is a head-space GC/MS method. Briefly, reaction mixtures in 500 ul reaction volume are prepared in 1.5 ml×32 mm glass vials (Microliter Analytical Supplies, Cat#11-1200) for head space analysis. Glass vials are sealed with magnetic cap from MicroLiter Analytical Supplies, Inc. (catalog number 11-0030AT) using a E-Z Crimper™ 11 mm from Wheaton Industries Inc. The reaction is carried out at room temperature for various amount of time and stopped by heating at 95° C. for 5 min. The reaction vial is transferred to a agitator for incubation at 80° C. for 5 min at 500 rpm. With a syringe preheated at 80° C., 1000 uL of head space is injected with sample fill speed at 100 uL/sec. GC/MS parameters for headspace analysis are the same as for liquid sample analysis.

The nature of data set [3]: Detection of 4-chloro-3-methoxy phenol product by LC-MS/MS. It is filed as biochemical. The following applies: purified protein.
The nature of data set [4]: Detection of 2,5-DCP product by GC/MS. Type of data set: biochemical. The note with it: purified protein.
Data set [5] can be described thus: Dicamba decarboxylation activity of computationally designed protein variants.
Data set [6] in a line: 14C assay with IPTG-induced recombinant E. coli cells (14CO2 capture from [14C]-carboxyl-labeled dicamba).
The nature of data set [7]: Saturation mutagenesis of SEQ ID NO:109, dicamba decarboxylation activity of point mutants.
Data set [8] in a line: Enzyme kinetic characterization (kcat, KM, kcat/KM) by PEPC/MDH coupled enzyme assay or GC/MS measurement of 2,5-DCP.
The mark [9] stands for this setting: purified protein, substrate dicamba.

B1: SEQ ID NO:1: 2,6-Dihydroxybenzoate Decarboxylase, Rhizobium sp. MTP-10005 (protein, listed as Rhizobium sp.)
chain: MAQGKVALEEHFAIPETLQDSAGFVPGDYWKELQHRLLDIQDTRLKLMDAHGIETMILSLNAPAVQAIPDRRKAIEIARRANDVLAEECAKRPDRFLAFAALPLQDPDAATEELQRCVNDLGFVGALVNGFSQEGDGQTPLYYDLPQYRPFWGEVEKLDVPFYLHPRNPLPQDSRIYDGHPWLLGPTWAFAQETAVHALRLMASGLFDEHPRLNIILGHMGEGLPYMMWRIDHRNAWVKLPPRYPAKRRFMDYFNENFHITTSGNFRTQTLIDAILEIGADRILFSTDWPFENIDHASDWFNATSIAEADRVKIGRTNARRLFKLDGA
For the molecule B1, the CO2 product entry in data set [1] was “detected”. Moreover, the “2,5-DCA product” value in data set [2] is on record as “detected”. Also, in data set [3], the 4-chloro-3-methoxy phenol product result is “detected”. For the same molecule, the “2,5-DCP product” value in data set [4] is on record as “detected”. Further, in data set [5] (native protein or designed variant versus parent), the “Dicamba Decarboxylase Activity” value is reported as “native dicamba decarboxylase activity”. Further, the “decarboxylation activity of dicamba” value in data set [6] (E. coli cell assay, 108 sequences tested) is listed as “showed decarboxylation activity of dicamba”.

B2: N61A: point mutation N61A of SEQ ID NO:109 (protein)
chain: B1 chain with N61A, N235V
modifications: Dicamba decarboxylase variant clone DC.4.032
Regarding B2, the “Average Activity (Fold of SEQ ID NO: 109)” value in data set [7] (dicamba decarboxylation activity of point mutants of SEQ ID NO: 109 (NNK saturation mutagenesis), relative to the unchanged template) was 2.9 Fold of SEQ ID NO: 109. Besides, the “Average Activity (Fold of SEQ ID NO: 109)” value in data set [7] (dicamba decarboxylation activity of single point mutants of SEQ ID NO:109, relative to unchanged template) is 2.9 Fold of SEQ ID NO: 109. Besides, in data set [8] (FIG. 6), the “KM compared with template SEQ ID NO:109” value is “unchanged” and the “kcat compared with template SEQ ID NO:109” value worked out at 17 fold.

B3: 109 (protein)
chain: B1 chain with N235V
modifications: Dicamba decarboxylase variant clone DC.4.032
For the molecule B3, the “Dicamba Decarboxylation activity” value in data set [5] (Table 5, designed variants with improved activity) is recorded as “Yes”. In addition, in data set [5] (parent SEQ ID NO:1 or SEQ ID NO:41 listed as 100), the “Percent Activity Improvement Over Parent (%)” value was found to be 234%. Besides, the “Enzymatic Detection level” value in data set [6] (dicamba decarboxylation activity of the protein of the given SEQ ID NO) is reported as “High”. For the same molecule, in data set [8] (setting [9]), the Km was 4.66 mM and the kcat came out at 0.000533 s⁻¹.

The values are drawn from patent US20140287419A1, “Compositions Having Dicamba Decarboxylase Activity and Methods of Use” (priority 2013, published 2014).
